Experimental data taken from PMC4062475, “Cloning, Expression and Characterization of UDP-N-Acetylglucosamine Enolpyruvyl Transferase (MurA) from Wolbachia Endosymbiont of Human Lymphatic Filarial Parasite Brugia malayi” (PLoS ONE, 2014).

Columns and labels:
wBm-MurA = molecular target: T1, wBm-MurA (Wolbachia endosymbiont of Brugia malayi, UniProt Q5GRP6); test: malachite green phosphate release assay, […] min pre-incubation, […] h reaction; format: biochemical; conditions: 5 mM PEP, 0.6 mM UDPAG, pH 7.5, 37°C; competitive with PEP; covalent (as stated by authors)
T1 construct: full-length 1278 bp ORF in pET28a (BamHI/XhoI), His6-tagged, expressed in E. coli Rosetta(DE3)pLysS, Ni-NTA purified, ~51 kDa, tag removal not mentioned
T1 sequence (Q5GRP6 1-425): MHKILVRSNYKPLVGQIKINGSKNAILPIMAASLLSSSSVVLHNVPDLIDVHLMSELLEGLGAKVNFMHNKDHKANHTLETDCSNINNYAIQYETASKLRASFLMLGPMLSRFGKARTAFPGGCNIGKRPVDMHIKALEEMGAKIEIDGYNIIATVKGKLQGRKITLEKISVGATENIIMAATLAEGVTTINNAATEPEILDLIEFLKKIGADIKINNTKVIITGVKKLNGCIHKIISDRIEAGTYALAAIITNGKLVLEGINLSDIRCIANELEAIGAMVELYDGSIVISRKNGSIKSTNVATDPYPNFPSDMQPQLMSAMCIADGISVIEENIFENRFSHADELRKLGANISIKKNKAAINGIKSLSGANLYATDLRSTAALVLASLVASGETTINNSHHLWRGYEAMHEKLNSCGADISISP

[1] = substrate: CC(=O)N[C@H]1[C@@H](OP(=O)(O)OP(=O)(O)OC[C@H]2O[C@@H](n3ccc(=O)[nH]c3=O)[C@H](O)[C@@H]2O)O[C@H](CO)[C@@H](O)[C@@H]1O; test: malachite green phosphate release assay, Michaelis-Menten non-linear fit; format: biochemical, Wolbachia endosymbiont of Brugia malayi; conditions: 1 mM PEP, 50 mM Tris-HCl pH 7.5, 10 mM KCl, 1 mM DTT, 10% glycerol, 37°C
[2] = substrate: C=C(OP(=O)(O)O)C(=O)O; test: as above; format: biochemical, Wolbachia endosymbiont of Brugia malayi; conditions: 5 mM UDPAG, 50 mM Tris-HCl pH 7.5, 10 mM KCl, 1 mM DTT, 10% glycerol, 37°C

Molecule | fold decrease of activity at 50 mM (wBm-MurA) | Km [1] [µM] | Km [2] [µM]
C[C@@H]1O[C@@H]1P(=O)(O)O [fosfomycin] | ~ 2 fold |  | 
wBm-MurA (Wolbachia endosymbiont strain TRS of Brugia malayi) (protein, full-length 1278 bp ORF in pET28a (BamHI/XhoI), His6-tagged, expressed in E. coli Rosetta(DE3)pLysS, Ni-NTA purified, ~51 kDa, tag removal not mentioned) MHKILVRSNYKPLVGQIKINGSKNAILPIMAASLLSSSSVVLHNVPDLIDVHLMSELLEGLGAKVNFMHNKDHKANHTLETDCSNINNYAIQYETASKLRASFLMLGPMLSRFGKARTAFPGGCNIGKRPVDMHIKALEEMGAKIEIDGYNIIATVKGKLQGRKITLEKISVGATENIIMAATLAEGVTTINNAATEPEILDLIEFLKKIGADIKINNTKVIITGVKKLNGCIHKIISDRIEAGTYALAAIITNGKLVLEGINLSDIRCIANELEAIGAMVELYDGSIVISRKNGSIKSTNVATDPYPNFPSDMQPQLMSAMCIADGISVIEENIFENRFSHADELRKLGANISIKKNKAAINGIKSLSGANLYATDLRSTAALVLASLVASGETTINNSHHLWRGYEAMHEKLNSCGADISISP |  | 31.49 | 9.198
